Source: patent publication US20070071744A1 (published 2007)
Ends that are not written are not given here.

Key:
Experiment in all cases: PepSpot peptide array
[1] = target: T1, peptide 100 (human)
T1 peptide: Ac-ELVVTGTSVTPSR
Method: (§1) The peptides were synthesized on a cellulose membrane in a stepwise manner resulting in a defined arrangement (peptide array) and are covalently bound to the cellulose membrane. Binding assays were performed directly on the peptide array. In general an antigen peptide array is incubated with blocking buffer for several hours to reduce non-specific binding of proteins or antibodies. It follows the incubation with a primary (antigen peptide-binding) antibody in blocking buffer and an incubation with a horseradish peroxidase (HRP)-labelled secondary antibody, which binds selectively the primary antibody. Alternatively a HRP-labelled primary antibody in blocking buffer can be used.
(§2) A short T(Tween)-TBS-buffer washing directly after the incubation of the antigen peptide array with the secondary protein or antibody or the HRP-labelled primary antibody followed by the first chemiluminescence experiment is made to get an first overview which antigen peptides do bind the primary antibody. Several buffer washing steps follow (T-TBS- and TBS-buffer) to reduce false positive binding (unspecific antibody binding to the cellulose membrane itself). After these washing steps the final chemiluminescence analysis is performed. The data were analysed with an imaging system showing the signal intensity (Light units, LU) as single measurements for each peptide. In order to evaluate non-specific binding of secondary antibodies, incubations using the secondary antibody have to be performed in the absence of the primary antibody as control incubation.

[2] = target: T2, peptide 101 (human)
T2 peptide: Ac-VVTGTSVTPSRLP
Method: as §1, §2

[3] = target: T3, peptide 105 (human)
T3 peptide: Ac-PSRLPTEPPSSVA
Method: as §1, §2

[4] = target: T4, peptide 109 (human)
T4 peptide: Ac-PSSVAEFSEATAE
Method: as §1, §2

[5] = target: T5, peptide 110 (human)
T5 peptide: Ac-SVAEFSEATAELT
Method: as §1, §2

[6] = target: T6, peptide 111 (human)
T6 peptide: Ac-AEFSEATAELTVS
Method: as §1, §2

[7] = target: T7, peptide 112 (human)
T7 peptide: Ac-FSEATAELTVSFT
Method: as §1, §2

[8] = target: T8, peptide 114 (human)
T8 peptide: Ac-TAELTVSFTNKVF
Method: as §1, §2

[9] = target: T9, peptide 12 (human)
T9 peptide: Ac-GPLPKPSLQALPS
Method: as §1, §2

[10] = target: T10, peptide 122 (human)
T10 peptide: Ac-TSRSITTSPKESD
Method: as §1, §2

[11] = target: T11, peptide 125 (human)
T11 peptide: Ac-TSPKESDSPAGPA
Method: as §1, §2

[12] = target: T12, peptide 128 (human)
T12 peptide: Ac-DSPAGPARQYYTK
Method: as §1, §2

[13] = target: T13, peptide 13 (human)
T13 peptide: Ac-LPKPSLQALPSSL
Method: as §1, §2

[14] = target: T14, peptide 2 (human, cysteine pairing not given here)
T14 peptide: Ac-PSPTALFCLGLCL
Method: as §1, §2

[15] = target: T15, peptide 20 (human)
T15 peptide: Ac-PLEKPVTLRCQGP
Method: as §1, §2

[16] = target: T16, peptide 24 (human)
T16 peptide: Ac-RCQGPPGVDLYRL
Method: as §1, §2

[17] = target: T17, peptide 26 (human)
T17 peptide: Ac-PPGVDLYRLEKLS
Method: as §1, §2

[18] = target: T18, peptide 30 (human)
T18 peptide: Ac-LEKLSSSRYQDQA
Method: as §1, §2

[19] = target: T19, peptide 32 (human)
T19 peptide: Ac-SSSRYQDQAVLFI
Method: as §1, §2

[20] = target: T20, peptide 33 (human)
T20 peptide: Ac-SRYQDQAVLFIPA
Method: as §1, §2

[21] = target: T21, peptide 37 (human)
T21 peptide: Ac-LFIPAMKRSLAGR
Method: as §1, §2

[22] = target: T22, peptide 38 (human)
T22 peptide: Ac-IPAMKRSLAGRYR
Method: as §1, §2

[23] = target: T23, peptide 4 (human, cysteine pairing not given here)
T23 peptide: Ac-ALFCLGLCLGRVP
Method: as §1, §2

[24] = target: T24, peptide 52 (human)
T24 peptide: Ac-LELVATGVFAKPS
Method: as §1, §2

[25] = target: T25, peptide 57 (human)
T25 peptide: Ac-KPSLSAQPGPAVS
Method: as §1, §2

[26] = target: T26, peptide 59 (human)
T26 peptide: Ac-SAQPGPAVSSGGD
Method: as §1, §2

[27] = target: T27, peptide 6 (human)
T27 peptide: Ac-LGLCLGRVPAQSG
Method: as §1, §2

[28] = target: T28, peptide 67 (human)
T28 construct: also called QCQTRYGFDQFAL
T28 peptide: Ac-QCQTRYGFDQFAL
Method: as §1, §2

[29] = target: T29, peptide 68 (human)
T29 peptide: Ac-QTRYGFDQFALYK
Method: as §1, §2

[30] = target: T30, peptide 74 (human)
T30 peptide: Ac-KEGDPAPYKNPER
Method: as §1, §2

[31] = target: T31, peptide 76 (human)
T31 peptide: Ac-PAPYKNPERWYRA
Method: as §1, §2

[32] = target: T32, peptide 77 (human)
T32 peptide: Ac-PYKNPERWYRASF
Method: as §1, §2

[33] = target: T33, peptide 8 (human)
T33 peptide: Ac-LGRVPAQSGPLPK
Method: as §1, §2

[34] = target: T34, peptide 80 (human)
T34 peptide: Ac-RWYRASFPIITVT
Method: as §1, §2

[35] = target: T35, peptide 81 (human)
T35 peptide: Ac-YRASFPIITVTAA
Method: as §1, §2

[36] = target: T36, peptide 84 (human)
T36 peptide: Ac-IITVTAAHSGTYR
Method: as §1, §2

[37] = target: T37, peptide 85 (human)
T37 peptide: Ac-TVTAAHSGTYRCY
Method: as §1, §2

[38] = target: T38, peptide 9 (human)
T38 peptide: Ac-RVPAQSGPLPKPS
Method: as §1, §2

[39] = target: T39, peptide 90 (human)
T39 peptide: Ac-RCYSFSSRDPYLW
Method: as §1, §2

[40] = target: T40, peptide 93 (human)
T40 peptide: Ac-SRDPYLWSAPSDP
Method: as §1, §2

[41] = target: T41, peptide 99 (human)
T41 peptide: Ac-PLELVVTGTSVTP
Method: as §1, §2

B1: monoclonal antibody hGP 5C4 (antibody, V domains shown)
VH: EVKLQESGGGLVQPGRSLKLSCTASGFTFSDYFMSWVRQAPTRGLEWVASISSGGASAYWRDSVKGRFTISRDNAKSALYLQMDSLRSEDTATYFCARGELDFDYWGQGVMVAVSS
VL: ADPNSTLLSASVGDRVTLNCTASQNVYKNLAWYQQKLGEAPRLLLYSANSQTGIPSRFSGSGSGPDFTLTISSLQPEDVASYFCQQYYSGNTFGAGTKLELKR
notes: Rat hybridoma antibody (Lou/C rats), heavy chain gamma 2a, light chain kappa; also called ab 5C4; anti-GPVI mAb 5C4
LU (Light Units) [1]: 114 LU | LU (Light Units) [2]: 211 LU | LU (Light Units) [3]: 33 LU | LU (Light Units) [4]: 69 LU | LU (Light Units) [5]: 71 LU | LU (Light Units) [6]: 136 LU | LU (Light Units) [7]: 100 LU | LU (Light Units) [8]: 226 LU | LU (Light Units) [9]: 2980 LU | LU (Light Units) [10]: 195 LU | LU (Light Units) [11]: 25 LU | LU (Light Units) [12]: 66 LU | LU (Light Units) [13]: 2050 LU | LU (Light Units) [14]: 79 LU | LU (Light Units) [15]: 175 LU | LU (Light Units) [16]: 28 LU | LU (Light Units) [17]: 101 LU | LU (Light Units) [18]: 184 LU | LU (Light Units) [19]: 319 LU | LU (Light Units) [20]: 259 LU | LU (Light Units) [21]: 1120 LU | signal to noise ratio [21]: ~4 ratio | LU (Light Units) [22]: 1030 LU | LU (Light Units) [23]: 5 LU | LU (Light Units) [24]: 148 LU | LU (Light Units) [25]: 128 LU | LU (Light Units) [26]: 155 LU | LU (Light Units) [27]: 91 LU | LU (Light Units) [28]: 62 LU | LU (Light Units) [29]: 84 LU | LU (Light Units) [30]: 8 LU | LU (Light Units) [31]: 78 LU | LU (Light Units) [32]: 97 LU | LU (Light Units) [33]: 794 LU | LU (Light Units) [34]: 184 LU | LU (Light Units) [35]: 141 LU | LU (Light Units) [36]: 87 LU | LU (Light Units) [37]: 14 LU | LU (Light Units) [38]: 1100 LU | LU (Light Units) [39]: 65 LU | LU (Light Units) [40]: 107 LU | LU (Light Units) [41]: 202 LU
